Experimental data taken from US20240116985A1, “STAPLED PEPTIDES AND METHODS THEREOF” (priority 2020, published 2024).
Starred links: 1 amine or outer side, 2 acyl side, 3 side chain; linkers in the order of their positions; H or OH if unused. Positions of bridges follow the written chain, without caps; N, C: chain ends. Non-standard residues stand in square brackets, D forms with d. Primed or numbered codes have the meaning given here. No end group written: not given here. *: point of attachment. PyrS2″ = (S)-3-amino-1-((pent-4-en-1-yloxy)carbonyl)pyrrolidine-3-carboxylic acid (stapling residue), C=CCCCOC(=O)N1CC[C@@](N[*:1])(C(=O)[*:2])C1; B5(4) = 2,2-bis(4-pentenyl)glycine = 2-amino-2-(pent-4-en-1-yl)hept-6-enoic acid (stitching residue), C=CCCCC(CCCC=C)(N[*:1])C(=O)[*:2]; B5(5) = 2,2-bis(4-pentenyl)glycine, 2-amino-2-(pent-4-en-1-yl)hept-6-enoic acid (stitching residue), C=CCCCC(CCCC=C)(N[*:1])C(=O)[*:2]; TfeGA = (S)-2-amino-3-((carboxymethyl)(2,2,2-trifluoroethyl)amino)propanoic acid, O=C([C@H](CN(CC(=O)[*:3])CC(F)(F)F)N[*:1])[*:2]; PyrS2 = (S)-3-amino-1-((pent-4-en-1-yloxy)carbonyl)pyrrolidine-3-carboxylic acid, C=CCCCOC(=O)N1CC[C@@](N[*:1])(C(=O)[*:2])C1; (Pip)GlnR = (S)-2-amino-5-oxo-5-(piperidin-1-yl)pentanoic acid, O=C(CC[C@H](N[*:1])C(=O)[*:2])N1CCCCC1; B5(3) = 2,2-bis(4-pentenyl)glycine (stitching residue), C=CCCCC(CCCC=C)(N[*:1])C(=O)[*:2]; ProSAm3 = (allylsulfonyl)-D-proline, C=CCS(=O)(=O)N1CCC[C@@H]1C(=O)*; Phe(3-COOH) = N[C@@H](Cc1cccc(C(=O)O)c1)C(=O)O; Phe(2-CF3) = N[C@@H](Cc1ccccc1C(F)(F)F)C(=O)O; Bta = N[C@@H](Cc1csc2ccccc12)C(=O)O; Lys(iPr) = CC(C)NCCCC[C@H](N)C(=O)O; αAllylPro = C=CC[C@@]1(C(=O)O)CCCN1; tBuAla = CC(C)(C)C[C@H](N)C(=O)O; 3Thi = N[C@@H](Cc1ccsc1)C(=O)O; R5 = C=CCCC[C@@](C)(N)C(=O)O; 2F3MeF(3) = Phe analogue; Abu = CC[C@H](N)C(=O)O; Aib = CC(C)(N)C(=O)O

The binders below were run against full-length beta-Catenin (Uniprot ID P35222) (Homo sapiens (Human)) (UniProt P35222) (assay: fluorescence polarization competition; full-length beta-catenin, competitor 5FAM-TCF4(10-53)).
Target sequence in this assay (P35222 whole entry): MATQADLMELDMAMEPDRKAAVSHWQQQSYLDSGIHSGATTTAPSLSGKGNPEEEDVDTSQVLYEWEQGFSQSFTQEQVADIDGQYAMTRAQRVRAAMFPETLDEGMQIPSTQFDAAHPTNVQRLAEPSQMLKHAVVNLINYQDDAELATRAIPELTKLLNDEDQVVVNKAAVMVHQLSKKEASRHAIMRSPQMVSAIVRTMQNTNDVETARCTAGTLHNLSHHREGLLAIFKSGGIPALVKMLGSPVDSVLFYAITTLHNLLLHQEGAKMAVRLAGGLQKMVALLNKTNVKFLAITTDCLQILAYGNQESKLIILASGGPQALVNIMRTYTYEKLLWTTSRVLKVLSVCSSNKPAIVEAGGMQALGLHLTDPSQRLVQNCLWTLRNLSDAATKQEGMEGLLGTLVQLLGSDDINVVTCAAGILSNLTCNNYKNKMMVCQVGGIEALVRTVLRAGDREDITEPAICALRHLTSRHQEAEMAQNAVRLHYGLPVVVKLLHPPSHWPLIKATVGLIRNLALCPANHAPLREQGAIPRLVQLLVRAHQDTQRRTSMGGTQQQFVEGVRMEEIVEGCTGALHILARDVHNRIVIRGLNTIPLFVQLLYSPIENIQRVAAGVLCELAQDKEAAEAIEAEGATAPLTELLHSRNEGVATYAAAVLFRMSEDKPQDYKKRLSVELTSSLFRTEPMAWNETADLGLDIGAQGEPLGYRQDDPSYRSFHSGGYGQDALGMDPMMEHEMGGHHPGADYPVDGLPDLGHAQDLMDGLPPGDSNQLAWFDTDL

Binder	IC50 [nM]
Ac-[αAllylPro]D[tBuAla][B5(4)]D[TfeGA]AAFT[PyrS2″][3Thi][Bta]F-NH2 (staple 1-4, 4-11; also: -CH=CH- in each staple reduced to -CH2-CH2-) [I-1756]	329
Ac-[αAllylPro]D[tBuAla][B5(5)]D[TfeGA]AAFL[PyrS2″][3Thi][Bta]F-NH2 (staple 1-4, 4-11) [I-1750]	104
Ac-[αAllylPro]D[tBuAla][B5(4)]D[TfeGA]AAFL[PyrS2″][3Thi][Bta]V-NH2 (staple 1-4, 4-11; not fully specified) [I-1751]	104
Ac-[αAllylPro]D[tBuAla][B5(4)]D[TfeGA]AAFL[PyrS2″][3Thi][Bta]F-NH2 (staple 1-4, 4-11; also: -CH=CH- in each staple reduced to -CH2-CH2-) [I-1755]	570
Ac-[αAllylPro]D[tBuAla][B5(4)]D[TfeGA]AAFL[PyrS2″][3Thi][Bta]V-NH2 (staple 1-4, 4-11; also: -CH=CH- in each staple reduced to -CH2-CH2-) [I-1757]	449
Ac-[αAllylPro]D[tBuAla][B5(4)]D[TfeGA]AAFL[PyrS2″][3Thi][Bta]L-NH2 (staple 1-4, 4-11; also: -CH=CH- in each staple reduced to -CH2-CH2-) [I-1753]	802
Ac-[αAllylPro]D[tBuAla][B5(4)]D[TfeGA]AAFL[PyrS2″][3Thi][Bta]V-NH2 (staple 1-4, 4-11; not fully specified) [I-1752]	87
Ac-[αAllylPro]D[tBuAla][B5(4)]D[TfeGA]AAFT[PyrS2″][3Thi][Bta]L-NH2 (staple 1-4, 4-11; also: -CH=CH- in each staple reduced to -CH2-CH2-) [I-1754]	660
Ac-[αAllylPro]D[tBuAla][B5(4)]D[TfeGA]AAFL[PyrS2″][3Thi][Bta]F-NH2 (staple 1-4, 4-11; not fully specified) [I-1749]	145
Ac-[αAllylPro]D[tBuAla][B5(5)]D[TfeGA]AAFL[PyrS2″][3Thi][Bta]L-NH2 (staple 1-4, 4-11) [I-1748]	141

Other lines, results leading:

IC50 [nM]	Binder
52	Ac-[αAllylPro]D[tBuAla][B5(5)]D[TfeGA][Lys(iPr)]AFL[PyrS2″][3Thi][Bta]V-NH2 (staple 1-4, 4-11) [I-1763]
23	Ac-[αAllylPro]D[tBuAla][B5(5)]D[TfeGA][Lys(iPr)]AFT[PyrS2″][3Thi][Bta]V-NH2 (staple 1-4, 4-11) [I-1764]
667	Ac-[αAllylPro]D[tBuAla][B5(4)]D[TfeGA][Lys(iPr)]AFL[PyrS2″][3Thi][Bta]L-NH2 (staple 1-4, 4-11; also: -CH=CH- in each staple reduced to -CH2-CH2-) [I-1765]
57	Ac-[αAllylPro]D[tBuAla][B5(5)]D[TfeGA][Lys(iPr)]AFL[PyrS2″][3Thi][Bta]L-NH2 (staple 1-4, 4-11) [I-1759]
39	Ac-[αAllylPro]D[tBuAla][B5(5)]D[TfeGA][Lys(iPr)]AFL[PyrS2″][3Thi][Bta]F-NH2 (staple 1-4, 4-11) [I-1761]
235	Ac-[αAllylPro]D[tBuAla][B5(4)]D[TfeGA]AAFT[PyrS2″][3Thi][Bta]V-NH2 (staple 1-4, 4-11; also: -CH=CH- in each staple reduced to -CH2-CH2-) [I-1758]
32	Ac-[αAllylPro]D[tBuAla][B5(5)]D[TfeGA][Lys(iPr)]AFT[PyrS2″][3Thi][Bta]L-NH2 (staple 1-4, 4-11) [I-1760]

These binders were tested against full-length beta-Catenin (Uniprot ID P35222) (Homo sapiens (Human)) (UniProt P35222) (assay: fluorescence polarization competition; full-length beta-catenin, 5FAM-TCF4(10-53) probe as competitor).
Target sequence in this assay (P35222 2-781 limits assumed): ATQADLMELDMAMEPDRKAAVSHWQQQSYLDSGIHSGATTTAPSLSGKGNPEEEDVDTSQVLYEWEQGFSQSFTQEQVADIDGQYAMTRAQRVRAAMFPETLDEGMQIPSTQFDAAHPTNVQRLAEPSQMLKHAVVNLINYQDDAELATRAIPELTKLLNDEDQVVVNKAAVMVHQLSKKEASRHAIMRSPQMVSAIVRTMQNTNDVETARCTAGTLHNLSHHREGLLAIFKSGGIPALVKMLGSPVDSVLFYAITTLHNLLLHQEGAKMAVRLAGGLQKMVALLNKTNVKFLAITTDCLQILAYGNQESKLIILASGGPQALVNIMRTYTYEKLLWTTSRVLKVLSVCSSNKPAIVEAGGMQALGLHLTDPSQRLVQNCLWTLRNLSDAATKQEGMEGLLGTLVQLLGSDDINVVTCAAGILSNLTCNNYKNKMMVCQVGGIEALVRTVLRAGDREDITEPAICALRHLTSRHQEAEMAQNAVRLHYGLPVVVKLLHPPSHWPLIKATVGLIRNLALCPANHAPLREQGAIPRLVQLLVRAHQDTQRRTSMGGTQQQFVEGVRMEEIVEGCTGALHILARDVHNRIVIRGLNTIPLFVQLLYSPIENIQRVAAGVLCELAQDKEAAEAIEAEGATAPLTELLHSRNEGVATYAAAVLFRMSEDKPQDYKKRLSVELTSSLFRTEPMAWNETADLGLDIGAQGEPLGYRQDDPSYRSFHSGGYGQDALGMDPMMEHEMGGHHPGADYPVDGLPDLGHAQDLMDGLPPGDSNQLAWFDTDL

Binder	IC50 [nM]
Ac-[αAllylPro]D[tBuAla][B5(5)]NT[Aib]AFN[PyrS2″][3Thi][Bta]W-NH2 (staple 1-4, 4-11) [Ac-PL3-Asp-Npg-B5-Asn-Thr-Aib-Ala-Phe-Asn-PyrS2-3Thi-BztA-Trp-NH2]	754
Ac-[αAllylPro]D[tBuAla][B5(3)]NT[Aib]AFN[PyrS2″][3Thi][Bta]Y-NH2 (staple 1-4, 4-11) [Ac-PL3-Asp-Npg-B5-Asn-Thr-Aib-Ala-Phe-Asn-PyrS2-3Thi-BztA-Tyr-NH2]	310
Ac-[αAllylPro]D[tBuAla][B5(3)]D[Phe(3-COOH)]QAFL[PyrS2″][Phe(2-CF3)][RbMe2NapA]A-NH2 (staple 1-4, 4-11) [Ac-PL3-Asp-Npg-B5-Asp-3COOHF-Gln-Ala-Phe-Leu-PyrS2-2F3MeF-RbMe2NapA-Ala-NH2]	47
Ac-[αAllylPro]D[tBuAla][B5(3)]D[Phe(3-COOH)][Aib]AF[Abu][PyrS2″][3Thi][Bta][Me2Gln]A-NH2 (staple 1-4, 4-11) [Ac-PL3-Asp-Npg-B5-Asp-3COOHF-Aib-Ala-Phe-Abu-PyrS2-3Thi-BztA-Me2Gln-Ala-NH2]	7
Ac-[αAllylPro]D[tBuAla][B5(3)]D[Phe(3-COOH)][Aib]AF[Abu][PyrS2″][Phe(2-CF3)][Bta][Me2Gln]A-NH2 (staple 1-4, 4-11) [Ac-PL3-Asp-Npg-B5-Asp-3COOHF-Aib-Ala-Phe-Abu-PyrS2-2F3MeF-BztA-Me2Gln-Ala-NH2]	38
[ProSAm3]D[tBuAla][B5(4)]DDAAFN[PyrS2″][3Thi][Bta]Q-NH2 (staple (positions not given here); staple 4-11; not fully specified (bridges); printed as ProSAm3-Asp-Npg-B5-Asp-Asp-Ala-Ala-Phe-Asn-PyrS2-3Thi-BztA-Gln-NH2; also: staple isomer of later-eluting HPLC peak) [I-1577]	45
Ac-[αAllylPro]D[tBuAla][B5(3)]D[Phe(3-COOH)]QAFL[PyrS2″][2F3MeF(3)][SbMe2NapA]A-NH2 (staple 1-4, 4-11) [Ac-PL3-Asp-Npg-B5-Asp-3COOHF-Gln-Ala-Phe-Leu-PyrS2-2F3MeF-SbMe2NapA-Ala-NH2]	164
Ac-[αAllylPro]D[tBuAla][B5(3)]D[TfeGA]AAFL[PyrS2″][3Thi][Bta][Me2Gln]A-NH2 (staple 1-4, 4-11) [Ac-PL3-Asp-Npg-B5-Asp-TfeGA-Ala-Ala-Phe-Leu-PyrS2-3Thi-BztA-Me2Gln-Ala-NH2]	10
Ac-[αAllylPro]D[tBuAla][B5(3)]NT[Aib]AFN[PyrS2″][3Thi][Bta]K-NH2 (staple 1-4, 4-11) [Ac-PL3-Asp-Npg-B5-Asn-Thr-Aib-Ala-Phe-Asn-PyrS2-3Thi-BztA-Lys-NH2]	165
Ac-[αAllylPro]D[tBuAla][B5(5)]NT[Aib]AFN[PyrS2″][3Thi][Bta]L-NH2 (staple 1-4, 4-11) [Ac-PL3-Asp-Npg-B5-Asn-Thr-Aib-Ala-Phe-Asn-PyrS2-3Thi-BztA-Leu-NH2]	627
Ac-[αAllylPro]D[tBuAla][B5(5)]D[Phe(3-COOH)]AAFL[PyrS2″][Phe(2-CF3)][Bta][Me2Gln]A-NH2 (staple 1-4, 4-11) [Ac-PL3-Asp-Npg-B5-Asp-3COOHF-Ala-Ala-Phe-Leu-PyrS2-2F3MeF-BztA-Me2Gln-Ala-NH2]	15
Ac-[αAllylPro]D[tBuAla][B5(3)]D[Phe(3-COOH)]QAFL[PyrS2″][Phe(2-CF3)][2F3MeW]A-NH2 (staple 1-4, 4-11) [Ac-PL3-Asp-Npg-B5-Asp-3COOHF-Gln-Ala-Phe-Leu-PyrS2-2F3MeF-2F3MeW-Ala-NH2]	4750
Ac-[αAllylPro]D[tBuAla][B5(5)]NT[Aib]AFN[PyrS2″][3Thi][Bta]V-NH2 (staple 1-4, 4-11) [Ac-PL3-Asp-Npg-B5-Asn-Thr-Aib-Ala-Phe-Asn-PyrS2-3Thi-BztA-Val-NH2]	475

More lines, now with the values ahead:

IC50 [nM]	Binder
24	Ac-[αAllylPro]D[tBuAla][B5(5)]D[Phe(3-COOH)]AAFL[PyrS2″][Phe(2-CF3)][Bta][(NHEt)GlnR]A-NH2 (staple 1-4, 4-11) [Ac-PL3-Asp-Npg-B5-Asp-3COOHF-Ala-Ala-Phe-Leu-PyrS2-2F3MeF-BztA-[NHEt]GlnR-Ala-NH2]
416	Ac-PD[tBuAla][R5]DDAAFL[PyrS2][3Thi][Bta]Q-NH2 (staple 4-11; also: staple -CH=CH- reduced to -CH2-CH2-) [I-1810]
14	Ac-[αAllylPro]D[tBuAla][B5(3)]D[TfeGA]AAFL[PyrS2″][3Thi][Bta][(NHEt)GlnR]A-NH2 (staple 1-4, 4-11) [Ac-PL3-Asp-Npg-B5-Asp-TfeGA-Ala-Ala-Phe-Leu-PyrS2-3Thi-BztA-[NHEt]GlnR-Ala-NH2]
7	Ac-[αAllylPro]D[tBuAla][B5(5)]D[Phe(3-COOH)][Aib]AF[Abu][PyrS2″][3Thi][Bta][(NHEt)GlnR]A-NH2 (staple 1-4, 4-11) [Ac-PL3-Asp-Npg-B5-Asp-3COOHF-Aib-Ala-Phe-Abu-PyrS2-3Thi-BztA-[NHEt]GlnR-Ala-NH2]
7	Ac-[αAllylPro]D[tBuAla][B5(5)]D[Phe(3-COOH)][Aib]AF[Abu][PyrS2″][3Thi][Bta][(Pip)GlnR]A-NH2 (staple 1-4, 4-11) [Ac-PL3-Asp-Npg-B5-Asp-3COOHF-Aib-Ala-Phe-Abu-PyrS2-3Thi-BztA-[Pip]GlnR-Ala-NH2]
19	Ac-[αAllylPro]D[tBuAla][B5(5)]D[TfeGA]AAFL[PyrS2″][3Thi][Bta][(Pip)GlnR]A-NH2 (staple 1-4, 4-11) [Ac-PL3-Asp-Npg-B5-Asp-TfeGA-Ala-Ala-Phe-Leu-PyrS2-3Thi-BztA-[Pip]GlnR-Ala-NH2]
